In data set [1] the target is type I-F CRISPR RNA-guided surveillance complex (Csy) (Pseudomonas aeruginosa) (UniProt Q02ML9). Description: cryo-EM structure; Csy–AcrIF9 complex co-expressed in E. coli and co-purified (Ni-NTA, Superdex 200 in 20 mM HEPES pH 7.5, 100 mM NaCl, 5% glycerol, 1 mM TCEP); nominal resolution ~3.9 Å.
Data set [2] concerns the molecule itself. The data set is described as above.

Experimental findings from paper PMC7264359, “AcrIF9 tethers non-sequence specific dsDNA to the CRISPR RNA-guided surveillance complex” (Nature Communications, 2020) are described below.

Broadly, the stoichiometry N is a count of units in the complex or per binding partner.

type I-F CRISPR RNA-guided surveillance complex (Csy) (Pseudomonas aeruginosa), sequence (Q02ML9 whole entry, chain 1 of 3): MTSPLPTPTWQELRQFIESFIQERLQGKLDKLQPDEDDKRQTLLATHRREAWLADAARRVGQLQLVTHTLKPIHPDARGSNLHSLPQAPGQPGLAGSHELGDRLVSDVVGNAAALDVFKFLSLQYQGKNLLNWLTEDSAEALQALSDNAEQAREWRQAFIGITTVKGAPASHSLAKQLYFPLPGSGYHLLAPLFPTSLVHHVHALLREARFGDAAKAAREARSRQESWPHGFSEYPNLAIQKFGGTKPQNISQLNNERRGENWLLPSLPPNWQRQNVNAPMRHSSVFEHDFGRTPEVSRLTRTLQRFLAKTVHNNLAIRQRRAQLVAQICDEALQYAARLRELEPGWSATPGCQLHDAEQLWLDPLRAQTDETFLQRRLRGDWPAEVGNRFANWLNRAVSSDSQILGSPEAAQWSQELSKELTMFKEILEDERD
type I-F CRISPR RNA-guided surveillance complex (Csy) (Pseudomonas aeruginosa), sequence (Q02MM0 whole entry, chain 2 of 3, further chain): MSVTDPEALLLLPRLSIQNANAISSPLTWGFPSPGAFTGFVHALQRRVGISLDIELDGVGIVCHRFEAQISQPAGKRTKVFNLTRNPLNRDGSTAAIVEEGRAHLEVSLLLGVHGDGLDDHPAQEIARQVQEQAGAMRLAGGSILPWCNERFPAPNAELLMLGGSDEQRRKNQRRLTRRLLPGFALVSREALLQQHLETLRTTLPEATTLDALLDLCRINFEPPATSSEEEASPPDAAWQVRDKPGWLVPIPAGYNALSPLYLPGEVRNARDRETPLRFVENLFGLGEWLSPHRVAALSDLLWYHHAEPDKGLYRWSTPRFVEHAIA
type I-F CRISPR RNA-guided surveillance complex (Csy) (Pseudomonas aeruginosa), sequence (Q02MM2 whole entry, chain 4 of 3, further chain): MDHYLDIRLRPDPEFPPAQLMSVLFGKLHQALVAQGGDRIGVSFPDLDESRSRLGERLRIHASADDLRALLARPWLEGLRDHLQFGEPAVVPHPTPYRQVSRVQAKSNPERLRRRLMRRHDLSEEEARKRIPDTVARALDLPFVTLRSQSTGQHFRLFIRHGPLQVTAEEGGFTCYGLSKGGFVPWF

Molecule “anti-CRISPR protein IF9 (AcrIF9), co-expressed with Csy (natural protein)” came in with a stoichiometry N in data set [1] of 2.

B1: Cas7f (natural protein, Pseudomonas aeruginosa)
chain: SKPILSTASVLAFERKLDPSDALMSAGAWAQRDASQEWPAVTVREKSVRGTISNRLKTKDRDPAKLDASIQSPNLQTVDVANLPSDADTLKVRFTLRVLGGAGTPSACNDAAYRDKLLQTVATYVNDQGFAELARRYAHNLANARFLWRNRVGAEAVEVRINHIRQGEVARAWRFDALAIGLRDFKADAELDALAELIASGLSGSGHVLLEVVAFARIGDGQEVFPSQELILDKGDKKGQKSKTLYSVRDAAAIHSQKIGNALRTIDTWYPDEDGLGPIAVEPYGSVTSQGKAYRQPKQKLDFYTLLDNWVLRDEAPAVEQQHYVIANLIRGGVFGEAEEK
notes: Cas7f, backbone subunit of the type I-F Csy complex of Pseudomonas aeruginosa; Stood in the assay as a subunit of the Csy complex (six copies along the crRNA); also called Cas7.4f; Cas7.6f; source: E. coli BL21 (DE3), co-expressed with the other Csy genes, a synthetic CRISPR and AcrIF9; purified within the complex (Ni-NTA, Superdex 200)
Take B1: the “stoichiometry N” value in data set [2] came out at 6.
